Results: paper PMC7060200, “Selective Binding of HSC70 and its Co-Chaperones to Structural Hotspots on CFTR” (Scientific Reports, 2020)

How the values were obtained:
[1] = target: DNAJA2 (DJA2), His-tagged (UniProt O60884); experiment: ELISA; competition: 1 μM chaperone mixed with soluble peptide (titrated up to 100 μM, or fixed 100 μM in the screens) and bound to immobilised 1097-L; Kd of the competing peptide from linearised competition curves
[2] = target: DNAJA1 (DJA1), His-tagged (UniProt P31689); experiment: as above
[3] = target: HSC70 (HSPA8), His-tagged (UniProt P11142); experiment: as above
Sequence of HSC70 (HSPA8), His-tagged (UniProt P11142) (P11142 whole entry): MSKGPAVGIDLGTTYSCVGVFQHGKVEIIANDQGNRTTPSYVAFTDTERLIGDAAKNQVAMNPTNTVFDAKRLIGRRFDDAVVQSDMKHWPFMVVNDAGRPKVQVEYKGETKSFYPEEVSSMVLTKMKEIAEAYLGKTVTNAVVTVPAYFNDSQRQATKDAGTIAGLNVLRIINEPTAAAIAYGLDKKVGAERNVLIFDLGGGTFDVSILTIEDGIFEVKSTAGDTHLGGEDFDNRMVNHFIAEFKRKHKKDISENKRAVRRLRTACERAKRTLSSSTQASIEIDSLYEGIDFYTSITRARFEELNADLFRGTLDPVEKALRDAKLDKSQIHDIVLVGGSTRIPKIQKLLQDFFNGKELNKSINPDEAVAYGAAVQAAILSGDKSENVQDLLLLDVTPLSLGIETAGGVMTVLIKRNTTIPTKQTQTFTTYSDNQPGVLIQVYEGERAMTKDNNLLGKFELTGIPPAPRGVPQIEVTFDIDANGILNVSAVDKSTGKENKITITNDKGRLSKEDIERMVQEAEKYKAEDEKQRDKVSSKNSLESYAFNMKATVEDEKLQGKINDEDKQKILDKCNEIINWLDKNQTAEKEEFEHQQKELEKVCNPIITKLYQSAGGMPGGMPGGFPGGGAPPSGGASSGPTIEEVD

[4] = target: CFTR peptide 1097-L, biotinylated (library form) (UniProt P13569); experiment: ELISA; titration of increasing concentrations of chaperone on immobilised biotinylated peptide; HSC70 with ATP; apparent Kd from linearised binding curves
[5] = target: Fluorescent peptide FAM-1092-S (UniProt P13569); experiment: other fluorescence titration; 0.5 μM FAM-1092-S with varying concentrations of chaperone, 45 min; HSC70 in buffer G, DJA1 and DJA2 in buffer H; excitation 492 nm, emission 520 nm; one site total binding fit
Sequence of Fluorescent peptide FAM-1092-S (P13569 whole entry, looked up, tested part not stated): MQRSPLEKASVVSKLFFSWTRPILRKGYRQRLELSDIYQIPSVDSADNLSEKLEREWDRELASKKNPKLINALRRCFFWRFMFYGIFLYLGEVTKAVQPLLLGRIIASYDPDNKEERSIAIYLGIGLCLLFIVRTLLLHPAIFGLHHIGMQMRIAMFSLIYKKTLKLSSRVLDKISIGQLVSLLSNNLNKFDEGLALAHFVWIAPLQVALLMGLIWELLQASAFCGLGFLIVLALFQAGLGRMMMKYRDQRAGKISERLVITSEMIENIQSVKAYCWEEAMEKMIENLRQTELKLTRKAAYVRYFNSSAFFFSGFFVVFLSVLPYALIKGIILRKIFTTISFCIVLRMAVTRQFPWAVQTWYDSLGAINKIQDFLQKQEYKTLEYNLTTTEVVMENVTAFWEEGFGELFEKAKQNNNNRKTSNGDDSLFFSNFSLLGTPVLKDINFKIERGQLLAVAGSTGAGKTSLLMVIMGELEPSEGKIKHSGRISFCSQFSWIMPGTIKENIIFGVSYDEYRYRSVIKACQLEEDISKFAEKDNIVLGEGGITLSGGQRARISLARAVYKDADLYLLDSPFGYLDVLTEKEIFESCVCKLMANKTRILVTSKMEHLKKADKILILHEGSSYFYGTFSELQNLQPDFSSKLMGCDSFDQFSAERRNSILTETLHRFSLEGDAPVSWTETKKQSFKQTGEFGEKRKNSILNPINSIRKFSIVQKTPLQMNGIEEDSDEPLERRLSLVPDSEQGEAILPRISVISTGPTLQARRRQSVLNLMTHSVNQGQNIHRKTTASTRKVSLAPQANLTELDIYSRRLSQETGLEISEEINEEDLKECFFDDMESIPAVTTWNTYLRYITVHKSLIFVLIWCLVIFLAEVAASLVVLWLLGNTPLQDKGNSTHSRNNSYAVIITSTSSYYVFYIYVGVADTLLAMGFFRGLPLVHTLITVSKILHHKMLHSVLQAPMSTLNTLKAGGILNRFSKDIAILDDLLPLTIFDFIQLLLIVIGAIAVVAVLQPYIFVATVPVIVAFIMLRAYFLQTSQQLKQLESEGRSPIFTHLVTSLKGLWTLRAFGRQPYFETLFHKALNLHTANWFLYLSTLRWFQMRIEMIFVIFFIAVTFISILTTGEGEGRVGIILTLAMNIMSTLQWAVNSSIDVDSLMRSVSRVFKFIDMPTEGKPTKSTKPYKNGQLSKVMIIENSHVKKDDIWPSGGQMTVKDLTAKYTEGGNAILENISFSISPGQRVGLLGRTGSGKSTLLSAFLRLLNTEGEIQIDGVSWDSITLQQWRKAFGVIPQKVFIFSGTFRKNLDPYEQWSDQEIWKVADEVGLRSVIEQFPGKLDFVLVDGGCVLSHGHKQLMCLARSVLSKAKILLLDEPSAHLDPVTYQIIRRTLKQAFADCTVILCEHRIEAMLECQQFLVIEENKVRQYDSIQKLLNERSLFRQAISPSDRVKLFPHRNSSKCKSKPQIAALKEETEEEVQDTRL

Sequence of CFTR peptide 1092-S (P13569 whole entry, looked up, tested part not stated): as above
Sequence of DNAJA2 (DJA2), His-tagged (UniProt O60884) (O60884 whole entry): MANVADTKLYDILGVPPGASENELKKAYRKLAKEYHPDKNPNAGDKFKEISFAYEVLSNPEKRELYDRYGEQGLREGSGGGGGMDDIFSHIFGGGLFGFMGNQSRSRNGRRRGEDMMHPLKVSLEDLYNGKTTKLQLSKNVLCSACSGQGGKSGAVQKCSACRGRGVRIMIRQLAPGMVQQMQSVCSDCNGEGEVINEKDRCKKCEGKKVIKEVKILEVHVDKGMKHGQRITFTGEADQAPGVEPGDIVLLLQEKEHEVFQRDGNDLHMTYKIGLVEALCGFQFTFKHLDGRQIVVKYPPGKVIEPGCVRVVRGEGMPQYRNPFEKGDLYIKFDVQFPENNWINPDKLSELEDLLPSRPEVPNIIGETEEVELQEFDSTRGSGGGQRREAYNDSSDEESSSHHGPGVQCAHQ
Sequence of DNAJA2 (DJA2), His-tagged (from UniProt O60884 1-412) (natural protein) (O60884 whole entry): as above
Sequence of HSC70 (HSPA8), His-tagged (from UniProt P11142 1-646) (natural protein) (P11142 whole entry): as the sequence (P11142 whole entry) above

| Substance | Kd [1] | Kd [2] | Kd [3] | Kd [4] | Kd [5] |
| --- | --- | --- | --- | --- | --- |
| CFTR peptide 1092-S (from UniProt P13569 1088-1096) | 2.62 µM | 5.47 µM | 1.26 µM |  |  |
| CFTR peptide 1097-L, soluble unmodified (from UniProt P13569 1090-1104) | 0.585 µM | 2.43 µM | 0.602 µM |  |  |
| DNAJA1 (DJA1), His-tagged (from UniProt P31689 1-397) (natural protein) |  |  |  | 0.167 µM | 3.97 µM |
| DNAJA2 (DJA2), His-tagged (from UniProt O60884 1-412) (natural protein) |  |  |  | 0.075 µM | 8.46 µM |
| HSC70 (HSPA8), His-tagged (from UniProt P11142 1-646) (natural protein) |  |  |  | 0.058 µM | 6.17 µM |
